{
  "source": "patent US20250051266A1",
  "about": "“Novel GLV-Phenolamide: Biosynthesis and Function in Protecting Plants from Herbivore Attack” (Max-Planck-Gesellschaft zur Förderung der Wissenschaften …, priority 2021, published 2025)",
  "proteins": {"B1": {"name": "NaPPO1 (Nicotiana attenuata) (protein)", "chain": "MASSSTLPLCTTKTPFSSSTNSFFFAKPSHLFLNGKRNQSFKVSCTGEHDGNQLDAIKEGAVERRNVLLGLGGLYGAANLAPLASAAPVPPPDLKSCGPATITDGPTVSYSCCPPTPDDMDSVPYYKIPRMSKLRKRPAAQDVSEEYIAKYQLATSKMRELDKDPFDPLGFKQQANIHCAYCNDAYTMGDKKLQVHQSWLFFPFHRWYLYFYERILGSLIDDPTFALPYWNWDHPSGMRLPAMFDVEGSSLYDARRNPNVRNGTIIDLGFFGNEVKTNEIQMITNNLILMYRQMITNAPSPLLFFGEPYRFGSKPNPGQGTIENIPHTPVHIWTGTVRDTDLGNGVKSYGEDMGNFYSAGLDPVFYSHHANVDRMWNEWKALGGKRRDLTDKDWLNSEFFFYDENRDPWRVKVRDCLDSKKMGYDYEPKATPWRNFKPGKKTTPGKVNLRSVKPASKVFPLSNLDRAICFSIERPATSRSQQEKDEFEEVLTFKNLKYDDSRYIKFDVFVNADKTVNADDIDKTEYAGSYTSLPHVHGPNNATHVVEVEEFKLAITELLEDCGLEDDDIIAVTVVPKTGGEVVSIDCVLIELKAFY"}, "B2": {"name": "NaPPO2 (Nicotiana attenuata) (protein)", "chain": "MASSSSSTLPLCASKTPSSSFTNTNSSFFAKPSQLFLHGKRNQNFKFSCNANSGEHDKNLDAVDRRNVLLGLGGLYGAANLAPLATAAPIPPPDLKSCSKAHINDQEEVSYSCCPPIPSDMDSVPYYKFPSMPKLRIRPAAHAADEEYIAKYQLATSRMRELDKDPFDPLGFKQQANIHCAYCNGAYKIGGKELQVHFSWLFFPFHRWYLYFYERILGSLINDPTFGLPYWNWDHPKGMRIPPMFDREGSSLYDARRNQSHRNGTIIDLGYFGTEVQTTQLQQMTNNLTIMYRQMITNAPCPLLFFGQPYPLGTDPSPGMGTIENIPHTPVHIWVGSGPNENNVQHGEDMGNFYSAGLDPLFYSHHANVDRMWSEWKALGGKRRDLTHKDWLNSEFFFYDENRNPFRVKVRDCLDSKKMGFDYAPMPTPWRNFKPIRKSNAGKVNLSSVPPASRVFPLSKLDRAISFSIDRPSSSRTQQEKNEQEEMLTFNNIKYDDSKYIRFDVFLNVDKTVNADELDKAEYAGSYTSLPHVHGDNASHVTSVTFQLAITELLEDIGLEDEDTIAVTVVPKTGGEEISIEGVEIKLVDC"}},
  "format_in_all_cases": "biochemical, Nicotiana attenuata",
  "settings_in_all_cases": "other substrate fixed ((Z)-3-hexenal 1 mM or caffeoylputrescine 80 μM)",
  "key": {"[1]": {"substrate": "CC/C=C\\CC=O", "assay": "Steady-state Michaelis-Menten kinetics of NaPPO1 (with or without NaBBL2)", "excerpt": "(§1) FIG. 49 Michaelis-Menten kinetics of PPO1 and BBL2 with different concentrations of caffeoylputrescine and (Z)-3-hexenal. Steady-state kinetics of caffeoylputrescine or (Z)-3-hexenal conversion to CPH catalyzed by PPO1 purified from E. coli B121 expressing PPO1. Error bars represent the standard error of the means (SEM) from three independent measurements of reaction velocity. The kinetic constants, apparent Km and Vmax (Table 2), and their standard errors were inferred using nonlinear Michaelis-Menten curve-fitting in GraphPad Prism (v. 9.0d). Substrate concentration for (Z)-3-hexenal was 1 mM.\nas §1, with “FIG. 51” for “FIG. 49”, “Vmax (see Table” for “Vmax (Table”, “for caffeoylputrescine” for “for (Z)-3-hexenal”, “was 80 μM.” for “was 1 mM.”\n(§2) Steady-state kinetics of NaPPO1, NaPPo2 and NaBBL2 enzymes: For steady-state kinetic analysis, the ability to oxidize N-caffeoylputrescine was tested in 84 mM acetate buffer (pH 4.8) at 22° C. water bath, containing 1 mM (Z)-3-hexnal, 1 mM FAD, 32 μg NaPPO1/NaPPO2, 30 μg/90 μg NaBBL2 (total volume 100 μL); assays lacking NaBBL2 enzymes served as negative controls.\n(§3) The following eight N-caffeoylputrescine final concentrations were each tested at three independent experiments: 10, 20, 40, 60, 80, 120, 140, and 160 μM. Likewise, the ability to catalyze (Z)-3-hexnal was tested in 84 mM acetate buffer (pH 4.8) at 22° C., containing 80 μM N-caffeoylputrescine, 1 mM FAD, 32 μg NaPPO1/NaPPO2, 30 μg/90 μg NaBBL2 (total volume 100 μL); again, assays lacking NaBBL2 enzymes served as negative controls. The following eight (Z)-3-hexnal final concentrations were each tested in three independent experiments: 500, 600, 700, 800, 1000, 1200, 1600, and 2000 μM. The reactions were initiated by the addition of the corresponding recombinant enzymes and the components were mixed by briefly vortexing, and immediately returned to the 22° C. water bath for incubation. After 20 minutes, all the reactions were briefly vortexed, and 100 μL aliquot of each reaction was transferred to a cold Eppendorf tube (−20° C.) containing 100 μL of MeOH (with 600 ng/mL testosterone as an internal standard) to terminate enzyme activity. Samples were centrifuged at 16,000g, 4° C. for 30 min, and 150 μL supernatants were transferred into to 2 mL glass vials for LC/MS (1 μL injection volume) analysis under the same method as described previously. Standard curves for caffeoylputrescine using authentic standards (with 600 ng/mL testosterone as an internal standard) (FIG. 34) were used to calculate the concentrations of substrate and product in each assay sample. The kinetic constants for caffeoylputrescine and (Z)-3-hexnal, apparent Km and Vmax, were inferred using a nonlinear regression in GraphPad Prism 9 (FIG. 34)."}, "[2]": {"substrate": "NCCCCNC(=O)/C=C/c1ccc(O)c(O)c1", "assay": "Steady-state Michaelis-Menten kinetics of NaPPO1 (with or without NaBBL2)", "excerpt": "as §1\nas §1, with “FIG. 51” for “FIG. 49”, “Vmax (see Table” for “Vmax (Table”, “for caffeoylputrescine” for “for (Z)-3-hexenal”, “was 80 μM.” for “was 1 mM.”\nas §2, §3"}, "[3]": {"substrate": "CC/C=C\\CC=O", "assay": "Steady-state Michaelis-Menten kinetics of NaPPO2 (with or without NaBBL2)", "excerpt": "as §1, with “50” for “49”, “PPO2” for “PPO1”, “PPO2.” for “PPO1.”\nas §1, with “52” for “49”, “PPO2” for “PPO1”, “PPO2.” for “PPO1.”, “mM.Substrate concentration for caffeoylputrescine was 80 μM.” for “mM.”\nas §2, §3"}, "[4]": {"substrate": "NCCCCNC(=O)/C=C/c1ccc(O)c(O)c1", "assay": "Steady-state Michaelis-Menten kinetics of NaPPO2 (with or without NaBBL2)", "excerpt": "as §1, with “50” for “49”, “PPO2” for “PPO1”, “PPO2.” for “PPO1.”\nas §1, with “52” for “49”, “PPO2” for “PPO1”, “PPO2.” for “PPO1.”, “mM.Substrate concentration for caffeoylputrescine was 80 μM.” for “mM.”\nas §2, §3"}, "[5]": {"settings": "other: PPO1 + BBL2 (30 μg), pH 4.8, 22.0 °C"}, "[6]": {"settings": "other: PPO1 + BBL2 (90 μg), pH 4.8, 22.0 °C"}, "[7]": {"settings": "other: PPO1 alone, pH 4.8, 22 °C"}, "[8]": {"settings": "other: PPO2 + BBL2 (30 μg), pH 4.8, 22.0 °C"}, "[9]": {"settings": "other: PPO2 + BBL2 (90 μg), pH 4.8, 22.0 °C"}, "[10]": {"settings": "other: PPO2 alone, pH 4.8, 22 °C"}},
  "data": [
    {"protein": "B1", "values": [
      {"measurement": "Km", "setting": "[1]; [5]", "value": "870.67 ± 381.05", "unit": "µM"},
      {"measurement": "Vmax", "setting": "[1]; [5]", "value": "0.10 ± 0.02", "unit": "µM/mg/min"},
      {"measurement": "Km", "setting": "[1]; [6]", "value": "870.67 ± 381.05", "unit": "µM"},
      {"measurement": "Vmax", "setting": "[1]; [6]", "value": "0.09 ± 0.02", "unit": "µM/mg/min"},
      {"measurement": "Km", "setting": "[1]; [7]", "value": "853.22 ± 257.87", "unit": "µM"},
      {"measurement": "Vmax", "setting": "[1]; [7]", "value": "0.09 ± 0.01", "unit": "µM/mg/min"},
      {"measurement": "Km", "setting": "[2]; [5]", "value": "86.09 ± 15.34", "unit": "µM"},
      {"measurement": "Vmax", "setting": "[2]; [5]", "value": "0.25 ± 0.02", "unit": "µM/mg/min"},
      {"measurement": "Km", "setting": "[2]; [6]", "value": "95.52 ± 28.20", "unit": "µM"},
      {"measurement": "Vmax", "setting": "[2]; [6]", "value": "0.26 ± 0.04", "unit": "µM/mg/min"},
      {"measurement": "Km", "setting": "[2]; [7]", "value": "67.30 ± 10.59", "unit": "µM"},
      {"measurement": "Vmax", "setting": "[2]; [7]", "value": "0.21 ± 0.01", "unit": "µM/mg/min"}
    ]},
    {"protein": "B2", "values": [
      {"measurement": "Km", "setting": "[3]; [8]", "value": "662.39 ± 360.69", "unit": "µM"},
      {"measurement": "Vmax", "setting": "[3]; [8]", "value": "0.021 ± 0.004", "unit": "µM/mg/min"},
      {"measurement": "Km", "setting": "[3]; [9]", "value": "643.31 ± 217.25", "unit": "µM"},
      {"measurement": "Vmax", "setting": "[3]; [9]", "value": "0.024 ± 0.003", "unit": "µM/mg/min"},
      {"measurement": "Km", "setting": "[3]; [10]", "value": "673.35 ± 393.28", "unit": "µM"},
      {"measurement": "Vmax", "setting": "[3]; [10]", "value": "0.023 ± 0.005", "unit": "µM/mg/min"},
      {"measurement": "Km", "setting": "[4]; [8]", "value": "206.18 ± 49.95", "unit": "µM"},
      {"measurement": "Vmax", "setting": "[4]; [8]", "value": "0.63 ± 0.09", "unit": "µM/mg/min"},
      {"measurement": "Km", "setting": "[4]; [9]", "value": "207.19 ± 78.07", "unit": "µM"},
      {"measurement": "Vmax", "setting": "[4]; [9]", "value": "0.67 ± 0.17", "unit": "µM/mg/min"},
      {"measurement": "Km", "setting": "[4]; [10]", "value": "204.35 ± 51.37", "unit": "µM"},
      {"measurement": "Vmax", "setting": "[4]; [10]", "value": "0.64 ± 0.10", "unit": "µM/mg/min"}
    ]}
  ]
}
